Experimental data as given in paper PMC9129911, “Electron Flow From the Inner Membrane Towards the Cell Exterior in Geobacter sulfurreducens: Biochemical Characterization of Cytochrome CbcL” (Frontiers in Microbiology, 2022).

Target: T1, triheme cytochrome PpcA from Geobacter sulfurreducens (Geobacter sulfurreducens, three heme groups)
T1 chain: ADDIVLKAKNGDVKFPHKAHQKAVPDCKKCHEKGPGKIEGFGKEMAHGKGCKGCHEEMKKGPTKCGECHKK
Assay: NMR titration; 1D 1H NMR chemical shift perturbation; CbcL (800 uM stock) added to 50 uM PpcA, both oxidized, 10 mM sodium phosphate pH 8, in 2H2O, 25°C; shift of PpcA heme methyl 18^1CH3^I fitted to a one binding site model under fast exchange
Conditions: both partners purified

B1: CbcL periplasmic domain (c- and b-type cytochrome for low potential) from Geobacter sulfurreducens (domain or fragment)
chain: IDPATCLGCHSNKISAAAFSASVHGKNACTSCHVEITDLTKHMKGEVKVEKVRCERCHKKENAEHYSSVHAQKDVRCADCHTDIHTHSYWNKDKRKVVAKCIQCHDKEAGYRNSIHGKGVAAGNMDSAACNDCHNLHDIKPLGDPKSKENREFHTKVCLKCHADEKMMERNNVFTVAVKTYMDSYHGKNYRLGFPEKVAGCADCHTAHGVLPAKDPNSSVNPQNLVATCAKCHPKATPLFTKFYSHGELG
modifications: nine c-type heme groups
- Kd: 57 ± 9 µM
